The target in one series is T1, rTsGS (Trichinella spiralis, UniProt A0ABR3KY69).
T1 construct: gene TSPI_06310
T1 sequence (A0ABR3KY69 1-365): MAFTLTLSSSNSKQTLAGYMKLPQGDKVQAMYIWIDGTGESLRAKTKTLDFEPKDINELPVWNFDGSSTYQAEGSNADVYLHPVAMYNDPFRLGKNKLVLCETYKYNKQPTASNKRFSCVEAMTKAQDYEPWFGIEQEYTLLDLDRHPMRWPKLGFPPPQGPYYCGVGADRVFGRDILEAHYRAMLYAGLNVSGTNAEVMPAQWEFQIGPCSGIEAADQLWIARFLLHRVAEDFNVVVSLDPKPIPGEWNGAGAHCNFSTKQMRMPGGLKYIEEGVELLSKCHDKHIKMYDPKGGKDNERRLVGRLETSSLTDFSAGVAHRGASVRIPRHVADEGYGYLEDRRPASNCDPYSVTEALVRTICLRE
Kind of series: phosphate release, absorbance at […] nm, with inhibitor. The series is classed as biochemical. As to conditions: substrates Glu, ATP, NH4+.

In the next series the test system is N. In words: purified protein. As to conditions: pH 7.0, 45 °C, 100 mM Mg2+, glutamate and ATP as co-substrates, range 0.5-5 mM.
For another series, the system named is N[C@@H](CCC(=O)O)C(=O)O. Kind of series: purified protein. The series is classed as biochemical, Trichinella spiralis. As to conditions: pH 7.0, 45 °C, 100 mM Mg2+, ATP and NH4+ as co-substrates, range 0.5-5 mM.

What is called Km is the substrate concentration at which the rate is half of its maximum.

In the case of `CP(=O)(O)CCC(N)C(=O)O` (stereo not drawn) [glufosinate], the “inhibition at 10% glufosinate” value on rTsGS was “Both EDTA and glufosinate could inhibit the rTsGS enzyme activity”.
rTsGS (Trichinella spiralis): the results for the Km in the series on N and with N[C@@H](CCC(=O)O)C(=O)O were 170 µM and 200 µM, respectively.

Values taken from paper PMC8488193, “Characterization of a Novel Glutamine Synthetase From Trichinella spiralis and Its Participation in Larval Acid Resistance, Molting, and Development” (Frontiers in Cell and Developmental Biology, 2021).
